# Experimental data taken from patent publication US5686572, “Domains of extracellular region of human platelet derived growth factor receptor polypeptides” (Cor Therapeutics, Inc., dated 1997).
# B1: extracellular region fragment of the type B human PDGF receptor (soluble, PΔ1 construct, D1-D2-D3-D4-D5) (receptor)
# chain: LVVTPPGPELVLNVSSTFVLTCSGSAPVVWERMSQEPPQEMAKAQDGTFSSVLTLTNLTGLDTGEYFCTHNDSRGLETDERKRLYIFVPDPTVGFLPNDAEELFIFLTEITEITIPCRVTDPQLVVTLHEKKGDVALPVPYDHQRGFSGIFEDRSYICKTTIGDREVDSDAYYVYRLQVSSINVSVNAVQTVVRQGENITLMCIVIGNDVVNFEWTYPRKESGRLVEPVTDFLLDMPYHIRSILHIPSAELEDSGTYTCNVTESVNDHQDEKAINITVVESGYVRLLGEVGTLQFAELHRSRTLQVVFEAYPPPTVLWFKDNRTLGDSSAGEIALSTRNVSETRYVSELTLVRVKVAEAGHYTMRAFHEDAEVQLSFQLQINVPVRVLELSESHPDSGEQTVRCRGRGMPQPNIIWSACRDLKRCPRELPPTLLGNSSEEESQLETNVTYWEEEQEFEVVSTLRLQH
# What was measured:
# PDGF BB [1] = biological target: T1, PDGF BB (Homo sapiens (Human), UniProt P01127); assay: competition: soluble receptor fragment against its immobilized form for binding 125I-PDGF BB
# Experimental: (§1) This fraction was then applied to Sephacryl S-200 HR (Pharmacia) equilibrated in 0.15M ammonium bicarbonate pH 7.9. The fractions containing receptor (3–10 ng/μl) were detected by SDS-PAGE and Western blotting with a polyclonal rabbit antibody, made by standard methods, against a Domain 1 (D1) segment from the receptor external region. These fractions (3–10 ng/μl) were used to coat the microtiter wells as described above. The wells were then drained, rinsed once with 200 μl each of 0.5% gelatin (BioRad, EIA grade), 25 mM Hepes, 100 mM NaCl, pH 7.4, and incubated for 1–2 h at 24° C. with 150 μl of this same solution. The wells were drained and rinsed twice with 0.3% gelatin, 25 mM Hepes, 100 mM NaCl, pH 7.4 (150 μl each). […] The bound radioactivity remaining was solubilized from the wells in 200 μl 1% SDS, 0.5% BSA, and counted in a gamma-counter. The nonspecific binding was determined in the presence of a 150-fold excess of unlabeled PDGF BB (Amgen) and was about 7% of the total bound ^125I-PDGF.
# (§2) Using iodinated PDGF-BB, the specific binding of less than 10 pg of ligand can be detected in an assay volume of […]. […] The nonspecific binding, determined in the presence of a […] of cold PDGF BB, was usually only about 5–10% of the total binding.
# PDGF BB [2] = biological target: T1, PDGF BB; assay: solid-phase plate assay, displacement of bound 125I-PDGF BB by unlabeled PDGF BB
# Experimental: as §1, §2
# PDGF BB [3] = biological target: T1, PDGF BB; assay: solid-phase plate assay at 4° C., 125I-PDGF BB on the receptor fragment coated on polystyrene wells, Scatchard analysis
# Experimental: as §1, §2
# PDGF BB [4] = biological target: T1, PDGF BB; assay: solid-phase plate assay, 125I-PDGF BB bound after 4 h at 4° C., dissociation in buffer
# Experimental: as §1, §2
binder,measurement,setting,value
B1,IC50,PDGF BB [1],5 nM
same,t1/2 of displacement by 150-fold excess of unlabeled PDGF BB,PDGF BB [2],< 1 h
same,Kd,PDGF BB [3],~1 nM
same,t1/2 of dissociation in binding buffer,PDGF BB [4],> 6 h
